From PMC10014863, “Structural analysis of the housecleaning nucleoside triphosphate pyrophosphohydrolase MazG from Mycobacterium tuberculosis” (Frontiers in Microbiology, 2023)

Target: the molecule itself
Assay: SEC

B1: Mycobacterium tuberculosis MazG (Mtb-MazG), full-length wild type (enzyme)
chain: MIVVLVDPRRPTLVPVEAIEFLRGEVQYTEEMPVAVPWSLPAARSAHAGNDAPVLLSSDPNHPAVITRLAAGARLISAPDSQRGERLVDAVAMMDKLRTAGPWESEQTHDSLRRYLLEETYELLDAVRSGSVDQLREELGDLLLQVLFHARIAEDASQSPFTIDDVADTLMRKLGNRAPGVLAGESISLEDQLAQWEAAKASEKARKSVADDVHTGQPALALAQKVIQRAQKAGLPAHLIPDEITSVSVSADVDAENTLRTAVLDFIDRLRCAERAIAVARRGSNVAEQLDVTPLGVITEQEWLAHWPTAVNDSRGGSKKRKGMR
notes: also called WT MazG; full-length MazG
  stoichiometry N: 2
